# Measurements as given in publication PMC5531539 (PLoS ONE, 2017).
# Molecular target: T1, Full-length isoform 165 of human VEGF-A (Homo sapiens, UniProt P15692-4, strain)
# T1 construct: human vascular endothelial growth factor A, 165 amino acid isoform (VEGF165); also called VEGF165
# Assay: SPR; BioRad ProteOn XPR36; HER2 or VEGF amine-coupled to a GLC chip (about 150 RU); Fab as analyte, 3-fold dilutions from 30, 60 or 120 nM; 25C; PBS, 0.05% Tween 20, 3.4 mM EDTA; 1:1 binding model, KD from koff/kon
# Details: both partners purified
# T1 sequence (P15692 whole entry, looked up, change not shown, canonical isoform): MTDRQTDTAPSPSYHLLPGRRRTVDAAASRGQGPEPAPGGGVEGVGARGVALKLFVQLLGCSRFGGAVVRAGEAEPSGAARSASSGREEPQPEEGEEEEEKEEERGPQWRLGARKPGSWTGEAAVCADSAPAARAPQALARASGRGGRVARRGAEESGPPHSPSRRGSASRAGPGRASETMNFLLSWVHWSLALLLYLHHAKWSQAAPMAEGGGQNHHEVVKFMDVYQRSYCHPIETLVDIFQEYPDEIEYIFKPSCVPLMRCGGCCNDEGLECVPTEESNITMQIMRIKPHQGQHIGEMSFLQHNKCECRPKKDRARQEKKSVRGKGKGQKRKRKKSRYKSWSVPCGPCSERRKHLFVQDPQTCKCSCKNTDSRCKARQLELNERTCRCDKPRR
Binder,Kd [nM],koff [s⁻¹],kon [M⁻¹ s⁻¹]
"bH1 Fab (parent) (Fab, V domains shown, Fab heavy chain of bH1; numbers count on: Bostrom et al. [8]; Fab light chain of bH1; also called WT; source: CHO-3E7, co-transfected, His-tag purified) VH: not shown VL: DIQMTQSPSSLSASVGDRVTITCRASQDIPRSISGYVAWYQQKPGKAPKLLIYWGSYLYSGVPSRFSGSGSGTDFTLTISSLQPEDFATYYCQQHYTTPPTFGQGTKVEIK",44 ± 17,0.009,220000
"bH1 Fab HD98W HY33W HG99D (Fab, V domains shown, as the heavy chain of m4 with the stated changes; numbers count on: Bostrom et al. [8]; as the light chain of m4; also called best triple mutant (bH1-VEGF); source: CHO-3E7, co-transfected, His-tag purified) VH: EVQLVESGGGLVQPGGSLRLSCAASGFNIKDTWIHWVRQAPGKGLEWVARIYPTNGYTRYADSVKGRFTISADTSKNTAYLQMNSLRAEDTAVYYCSRWGGWDFYAMDYWGQGTLVTVSS VL: DIQMTQSPSSLSASVGDRVTITCRASQDIPRSISGYVAWYQQKPGKAPKLLIYWGSYLYSGVPSRFSGSGSGTDFTLTISSLQPEDFATYYCQQHYTTPPTFGQGTKVEIK",0.5 ± 0.1,7e-05,160000
"bH1 Fab HD98W HY33W HG99M (Fab, V domains shown, as the heavy chain of m4 with the stated changes; numbers count on: Bostrom et al. [8]; as the light chain of m4; source: CHO-3E7, co-transfected, His-tag purified) VH: EVQLVESGGGLVQPGGSLRLSCAASGFNIKDTWIHWVRQAPGKGLEWVARIYPTNGYTRYADSVKGRFTISADTSKNTAYLQMNSLRAEDTAVYYCSRWGGWMFYAMDYWGQGTLVTVSS VL: DIQMTQSPSSLSASVGDRVTITCRASQDIPRSISGYVAWYQQKPGKAPKLLIYWGSYLYSGVPSRFSGSGSGTDFTLTISSLQPEDFATYYCQQHYTTPPTFGQGTKVEIK",1.2 ± 0.2,0.00034,290000

# Molecular target: T2, Recombinant soluble human HER2 extracellular domain (Homo sapiens, UniProt P04626)
# T2 construct: human HER2 (ErbB2), soluble extracellular domain; also called HER2 ectodomain; Receptor-tyrosine kinase ErbB2 soluble ectodomain; source: bought: eBioscience
# Assay: as above
# Details: both partners purified
Binder,Kd [nM],koff [s⁻¹],kon [M⁻¹ s⁻¹]
"bH1 Fab (parent) (Fab, V domains shown, Fab heavy chain of bH1; numbers count on: Bostrom et al. [8]; Fab light chain of bH1; also called WT; source: CHO-3E7, co-transfected, His-tag purified) VH: not shown VL: DIQMTQSPSSLSASVGDRVTITCRASQDIPRSISGYVAWYQQKPGKAPKLLIYWGSYLYSGVPSRFSGSGSGTDFTLTISSLQPEDFATYYCQQHYTTPPTFGQGTKVEIK",3.6 ± 0.6,0.0013,370000
"bH1 Fab HD98F HD31K LI29K (Fab, V domains shown, as the heavy chain of m4 with the stated changes; numbers count on: Bostrom et al. [8]; as the light chain of m4 with the stated change; source: CHO-3E7, co-transfected, His-tag purified) VH: not shown VL: DIQMTQSPSSLSASVGDRVTITCRASQDKPRSISGYVAWYQQKPGKAPKLLIYWGSYLYSGVPSRFSGSGSGTDFTLTISSLQPEDFATYYCQQHYTTPPTFGQGTKVEIK",0.14 ± 0.05,0.00029,2.2e+06
"bH1 Fab HD98K HD31K LI29K (Fab, V domains shown, as the heavy chain of m4 with the stated changes; numbers count on: Bostrom et al. [8]; as the light chain of m4 with the stated change; source: CHO-3E7, co-transfected, His-tag purified) VH: not shown VL: DIQMTQSPSSLSASVGDRVTITCRASQDKPRSISGYVAWYQQKPGKAPKLLIYWGSYLYSGVPSRFSGSGSGTDFTLTISSLQPEDFATYYCQQHYTTPPTFGQGTKVEIK",0.15 ± 0.05,0.00039,2.3e+06
"bH1 Fab HD98F HD31K LI29R (Fab, V domains shown, as the heavy chain of m4 with the stated changes; numbers count on: Bostrom et al. [8]; as the light chain of m4 with the stated change; source: CHO-3E7, co-transfected, His-tag purified) VH: not shown VL: DIQMTQSPSSLSASVGDRVTITCRASQDRPRSISGYVAWYQQKPGKAPKLLIYWGSYLYSGVPSRFSGSGSGTDFTLTISSLQPEDFATYYCQQHYTTPPTFGQGTKVEIK",0.11 ± 0.02,0.00029,2.7e+06
"bH1 Fab HD98K HD31K LI29R (Fab, V domains shown, as the heavy chain of m4 with the stated changes; numbers count on: Bostrom et al. [8]; as the light chain of m4 with the stated change; source: CHO-3E7, co-transfected, His-tag purified) VH: not shown VL: DIQMTQSPSSLSASVGDRVTITCRASQDRPRSISGYVAWYQQKPGKAPKLLIYWGSYLYSGVPSRFSGSGSGTDFTLTISSLQPEDFATYYCQQHYTTPPTFGQGTKVEIK",0.11 ± 0.02,0.00045,4.4e+06

# Second part, the binder after the results:
Kd [nM],koff [s⁻¹],kon [M⁻¹ s⁻¹],Binder
0.07 ± 0.01,0.00025,3.8e+06,"bH1 Fab HD98Y HD31K LI29R (Fab, V domains shown, as the heavy chain of m4 with the stated changes; numbers count on: Bostrom et al. [8]; as the light chain of m4 with the stated change; also called best triple mutant (bH1-HER2); source: CHO-3E7, co-transfected, His-tag purified) VH: not shown VL: DIQMTQSPSSLSASVGDRVTITCRASQDRPRSISGYVAWYQQKPGKAPKLLIYWGSYLYSGVPSRFSGSGSGTDFTLTISSLQPEDFATYYCQQHYTTPPTFGQGTKVEIK"
0.14 ± 0.09,0.00028,2.2e+06,"bH1 Fab HD98Y HD31K LI29K (Fab, V domains shown, as the heavy chain of m4 with the stated changes; numbers count on: Bostrom et al. [8]; as the light chain of m4 with the stated change; source: CHO-3E7, co-transfected, His-tag purified) VH: not shown VL: DIQMTQSPSSLSASVGDRVTITCRASQDKPRSISGYVAWYQQKPGKAPKLLIYWGSYLYSGVPSRFSGSGSGTDFTLTISSLQPEDFATYYCQQHYTTPPTFGQGTKVEIK"

# Molecular target: T3, Full-length isoform 165 of human VEGF-A (Homo sapiens, UniProt P15692-4, strain)
# T3 construct: vascular endothelial growth factor A, human, 165 amino acid isoform; also called VEGF165; source: produced recombinantly and purified
# Assay: SPR; BioRad ProteOn XPR36, GLC chip; HER2 and VEGF amine-coupled (about 150 RU); Fab variants injected as analyte in 3-fold dilutions (top 30, 60 or 120 nM); 25C, PBS with 0.05% Tween 20 and 3.4 mM EDTA; 1:1 model; KWT/K uses the parent Fab's K of the same batch
# Details: both partners purified
# T3 sequence (P15692 whole entry, looked up, change not shown, canonical isoform): as the sequence (P15692 whole entry, looked up, change not shown, canonical isoform) above
row,Binder,binding result
1,"bH1 Fab LS30dL (Fab, V domains shown, as the heavy chain of Sm3; bH1 Fab light chain, parent as in Sm3; numbers count on: Bostrom et al; source: CHO-3E7, co-transfected, purified (His tag)) VH: not shown VL: DIQMTQSPSSLSASVGDRVTITCRASQDIPRSILGYVAWYQQKPGKAPKLLIYWGSYLYSGVPSRFSGSGSGTDFTLTISSLQPEDFATYYCQQHYTTPPTFGQGTKVEIK",no binding
2,"bH1 Fab LS30dM (Fab, V domains shown, as the heavy chain of Sm3; bH1 Fab light chain, parent as in Sm3; numbers count on: Bostrom et al; source: CHO-3E7, co-transfected, purified (His tag)) VH: not shown VL: DIQMTQSPSSLSASVGDRVTITCRASQDIPRSIMGYVAWYQQKPGKAPKLLIYWGSYLYSGVPSRFSGSGSGTDFTLTISSLQPEDFATYYCQQHYTTPPTFGQGTKVEIK",no binding
